In the nanobody polyreactivity screen of Harvey et al. (2022):

Assay: yeast display, Sf9 membrane polyspecificity reagent, FACS + sequencing; frameworks hold sequencing errors
Method in brief: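 Polyreactivity labels are assigned by the sorting gate from which each nanobody was recovered. The gates were low and high (top ~1%), set on anti-HA fluorescence for expression and streptavidin fluorescence for reagent binding. Before sorting, galactose-induced (36–48 hours) yeast display cells were stained for 1 hour at 4 °C with 10% biotinylated, detergent-solubilized Sf9 membrane reagent.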

| Sequence | polyreactivity (PSR sort gate) |
| --- | --- |
| QVQLVESAGGLVQAGGSLRLSCAASGSIFILNAMGWYRQAPGKERELVAAISWSGGRTNYADSVKGRFTISRDNAKNTVYLHMNRLKPEDTAVYSCAARVTPYRGFYYWGQGTQVTVSS | high polyreactivity |
| QVQLVESAGGLVQAGGSLRLSCAASGSIFPAYAMGWYRQAPGKERELVASITTGDRTYYADSVKGRFTISRDNAKNTVYLQMNSLKPEDTAVYYCAALYYVHYYSAHYPTLSRHEYWGPGTQVTVSS | high polyreactivity |
| QVQLVESAGGLVQAGGSLRLSCAASGSIFSRNAMGWYRPAPGKERELVAAITWSGGSTYYADSVKGRFTISRDNAKNTVYLQMNSLKPEDTAVYYCNAKRSSRIKQLEYDYWGQGTQVTVSS | high polyreactivity |
| QVQLVESAGGLVQAGGSLRLSCAASGSIFTTYTIVWYRQAPGKERELVAAITSSSGSTYYADSVKGRFTISRDNAKNTVYLQMNSLKPEDTAVYYCNATYSAAVDYWGQGTQVTVSS | low polyreactivity |
| QVQLVESAGGLVQAGGSLRLSCAASGSTFDLYAMGWYRQAPGKEREFVAAISRSGGSTYYADSVKGRFTISRDNAKNTVYLHMNSLKPEDTAVYYSNARWPPGVSRGGMGYWGQGTQVTVST | high polyreactivity |
| QVQLVESAGGLVQAGGSLRLSCAASGSTFGENAMGWYRQAPGKERELVAAISDSGGDTYYADSVKGRFTISRDNAKYTVYLQMNSLKPEDTAVYYCAADRYGYWYAYYSWGQGTLVTVSS | low polyreactivity |
| QVQLVESAGGLVQAGGSLRLSCAASGSTFIRYAMGWYRQAPGKERELVAAITRGGSTYYADSVKGRFTISRDNAKYTVYLQMNSLKPEDTAVYYCAAGYYGNGVFEYDYWGQGTQVTVSS | low polyreactivity |
| QVQLVESAGGLVQAGGSLRLSCAASGSTFPTYAMGWYRQSPGKERELVAAIDWSDGSITYYADSVKGRFTISRDNAKNTVYLQMNSMKPEDTAVYYCAKDNSQYGWGYDYWGQGTQVTVSS | low polyreactivity |
| QVQLVESAGGLVQAGGSLRLSCAASGSTFVANAMGWYRQAPGKERELVARISRSTGSTYYADSVKGRFTISRDNAKNTVYLQMNSLKPEDTAVYYCAAPSVYYPQFDYWGQGTQVTVSS | high polyreactivity |
| QVQLVESAGGLVQAGGSLRLSCAASGSTLSWNTMGWYRQAPGKERELVARINWGGSSTYYADSVKGRFTISRDNAKNTVYLQMNSLKPEDTAVFYCNARYLSSAYDYWGQGTQVTVSS | high polyreactivity |
| QVQLVESAGGLVQAGGSLRLSCAASGSTLYKYAMGWYRQAPGKETEMVATLTRTDSTNYADSVKGRFTISRDNAKNTVYIQMNSLKPEDTAVYYCAARRVYYNGYYVNVGSFYYWGQGTQVTVSS | low polyreactivity |
| QVQLVESAGGLVQAGGSLRLSCAASGYIFVPYAMGWYRQAPGKERELVASITWSGGSTYYADSVKGRFTISRDNAKNTVYLQMNSLKPEDTAVYYCAAANYTYASRWYDYWGQGTQVTVSS | low polyreactivity |
| QVQLVESAGGLVQAGGSLRLSCAASGYTFPFYTMGWYRQAPGKERELVAAITDTGGGTYYADSVKGRFTISRDNAKNTVYLQMNSLNPEDTAVYYCAKPTSYRGYYSWGQGTQVTVSS | high polyreactivity |
| QVQLVESAGGLVQAGGSLRLSCAATGSIFHPYAMGWYRQAPGKERELVASITSSGGSTYYADSVKVRFTISRENAKNTVYLEMNSLKPEDTAVYYCKAQFLVYFFWYSTTAYIMYYWGQGTQVTVSS | low polyreactivity |
| QVQLVESAGGLVQAGGSLRLSCAAYGIIFKIYAMGWYRQAPGKERELVAAITRSGTRTYYADSVKGRFTISRDNEKNTVYFQMNSLKPEDTAGYYCNAYTSLAYDLDYWGQGTQVTVSS | high polyreactivity |
| QVQLVESAGGLVQAGGSLRLSCAAYGRTLAKYAMGWYRQAPGKERELVAAITRDGSTNYADSVKGRFTISRDNAKNTVYLQMNSLKPEDTAVYYCATRSYWYRVYYWGQGTQVTVSS | high polyreactivity |

| Sequence | polyreactivity (PSR sort gate) |
| --- | --- |
| QVQLVESAGGLVQAGGSLRLSCAAYGSIFGFYAMGWYRQAPGKERELVAAIDSGDSTNYADSVKGRFTISRDNAKNTVYLQMNSLKPEDTAVYYCNAEAWWYFWFDYWGQGTQVTVSS | low polyreactivity |
| QVQLVESAGGLVQAGGSLRLSCADSGRLFYLYARGWYRQAPGKERELVAAISSTGRTTYADSVKGRFTISRDNAKNTVYLQMNSLKPEDTAVYYGAADFRLSGSYGGFDYWGQGTQVTVSS | low polyreactivity |
| QVQLVESAGGLVQAGGSLRLSCADSGRTFAYNVIGWYRQAPGKERELVAGISFGAGTTYYADSVKGRFTISRDNAKNTVYLQMNSLKPEDTAVYYCATRRRGTRYPRGYDYWGQGTQVTVSS | high polyreactivity |
| QVQLVESAGGLVQAGGSLRLSCGASGRIYSLYAMGWYRQAPGKERELVAAISWGAGSTYYADSVKGRFTISRDNAKNTVYLQMNSLKREDTAVYYCATGRRYYYPYSSYLKYGYWGQGTQVTVSS | high polyreactivity |
| QVQLVESAGGLVQAGGSLRLSFAASGSIFYSYAMGSYRKAAGKDRELVADITSSGGSTYYADSVKGRFTISRDNAKNTDYLQMNSLKREDTAVYYCAASSPAFYGLRYNYWGQGTQVTVSS | low polyreactivity |
| QVQLVESAGGLVQAGGSLRLSGAASGSTFHNYAVGWSRQAPGKERELVGGISVRGGGTYYADSVKGRFTISRDNAKNTVYLQMNSLKPEDTAVYYCAQRSRYYYRYDYWGQGTQVTVSS | high polyreactivity |
| QVQLVESAGGLVQAGGSLRVRCAASGGIFSGNDMGWYRQAPGKERELVATITSDGSTNYADSVKGRFTISRDNAKNTVYLQMNSLKPEDTAVYYCAADGLYWWMYYWGQGTQVTVSS | low polyreactivity |
| QVQLVESAGGLVQAGGSLRYSCAASGRTIYRYAMGWYRQAPGKERELVAAINRSTGRTYYADSVKGRFTISRDNAKNTVYLQMTSLNPEDTAVYYCARSDKKYPQASSREDYGYWGQGTQVTVSS | high polyreactivity |
| QVQLVESAGGLVQAGGSLSLSCAASASTFSSNAMGGYRQAPGKERELVAAITTSGGSTYYADSVKGRFTISRDNAKNTVYLQMNSLIPEDTAVYYCAADLVHAYQWSIFLYGYWGLGTQVTVSS | low polyreactivity |
| QVQLVESAGGLVQAGGSLSLSCAASGRILDRNGMGWYRQAPGKERELVATITGIADSTYYADSVKGRFTISRDNAKNTVYLQMNSLKPEDTAVYYCAADKYVAEYDYWGQGTQVTVSS | low polyreactivity |
| QVQLVESAGGLVQAGGSRRLSCAASGRNFPFYAMGWYRQAPGKERELVATISSGDRTNYAVSVKGRFTISRDNAKNTVYLQMNSLKPEDTAVYYCAADFAVKYRKRVRRYSWGHGTQVTVSS | low polyreactivity |
| QVQLVESAGGLVQAGVRLRLSCAASGRTFVCNAMGSYRQAPGKERELVADITWSGDITYYADSVKGRFTISRDNAKNTVYLQMNSLKPEDTAVYYCAADYHRRLTDYDYWGQGTQVTVSS | low polyreactivity |
| QVQLVESAGGLVQAGVSLRLSCAASGFTFAQNVMGWYRQAPGKERELVAAISVSGGSTYYADSVKGRFTISRDNAKNTVYLQMNSLKPEDTAVYYCNAVAGVTKRVDLSRSGYWGLGTQVTVSS | high polyreactivity |
| QVQLVESAGGLVQAGVSLRLSCAASGFTFSPNAMGWYRQPPGKERELVAAIDWSGDRTYYADSVKGRFTISRDNAKNTVYLQMNSLKPEDTAVYYCAKTNFSQSSRYNYDYWGQGTQVTVSS | low polyreactivity |
| QVQLVESAGGLVQAGVSLRLSCAASGIIFPYYTMGWYRQAPGKERELVARITNGGRTYYADSVKGRFTISRDNAKNTVYLQMNSLKPEDTAVYYCNAGRYYIGGYWGQGTQVTVSS | high polyreactivity |
| QVQLVESAGGLVQAGVSRRLSFAASGSIFGDYAMGWYRQAPGTERELVATITWIGGSTYYADSVKGRFTISRDNAKNTVYLQMNSLIPEDTAVYYCAATKYVDVKYYYWGQGTQVTLSS | low polyreactivity |
